Laboratory results from patent publication US20160311919A1 (CELLDEX THERAPEUTICS, published 2016).
Values joined by “and” are separate entries in the source; they are usually repeats but may differ in a detail not shown here. Equal values may be shown once. Values belong to the binder of their own block, whether it stands above or below them.

How the values were obtained:
[1] = biological target: T1, GPNMB (CG56972), native full-length protein on the cell surface or in cell lysates (human, UniProt Q14956 23-492); assay: cell-based or functional assay
T1 sequence: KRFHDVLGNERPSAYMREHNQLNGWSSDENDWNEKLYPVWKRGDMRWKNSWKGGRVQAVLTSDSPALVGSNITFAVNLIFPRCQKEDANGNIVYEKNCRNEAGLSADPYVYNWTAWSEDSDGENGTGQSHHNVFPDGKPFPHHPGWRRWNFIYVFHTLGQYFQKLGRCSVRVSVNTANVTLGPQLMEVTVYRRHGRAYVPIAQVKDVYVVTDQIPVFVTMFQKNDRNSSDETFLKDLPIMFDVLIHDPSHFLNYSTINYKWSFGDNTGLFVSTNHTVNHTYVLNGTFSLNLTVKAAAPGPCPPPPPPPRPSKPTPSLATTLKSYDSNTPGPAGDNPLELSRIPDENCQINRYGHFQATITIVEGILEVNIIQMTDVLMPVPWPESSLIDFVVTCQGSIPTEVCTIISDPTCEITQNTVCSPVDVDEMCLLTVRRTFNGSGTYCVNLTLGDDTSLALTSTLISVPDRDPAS

[2] = biological target: T1, GPNMB (CG56972), native full-length …; assay: cell-based or functional assay; remark: listed apart in the source
[3] = biological target: T1, GPNMB (CG56972), native full-length …; assay: cell-based or functional assay; remark: listed apart in the source
[4] = biological target: T1, GPNMB (CG56972), native full-length …; assay: cell-based or functional assay; remark: listed apart in the source
[5] = biological target: T1, GPNMB (CG56972), native full-length …; assay: cell-based or functional assay; remark: listed apart in the source
[6] = biological target: T1, GPNMB (CG56972), native full-length …; assay: cell-based or functional assay; remark: listed apart in the source
[7] = biological target: T1, GPNMB (CG56972), native full-length …; assay: FACS, UACC-62 cells, Ab 1 ug/mL
Method: Cells were washed twice with PBS (Ca and Mg free), incubated with Versene at 37° C. until cells detached, counted and aliquoted at 1 million cells per assay tube. Cells were then washed twice and resuspended in ice-cold FACS buffer (0.01M HEPES, 0.15M NaCl, 0.1% NaN₃ and 4% FBS). Primary antibody at 1 μg/mL was added to the cells. Cells were incubated on ice for 30 min, washed 2-3 times and resuspended in 1 mL of ice-cold FACS buffer. R-PE-conjugated goat anti-human antibody (Jackson ImmunoResearch Laboratory) at 1:100 dilution was added and cells were incubated on ice for 30 min. After washing 3 times with 1 mL of ice-cold FACS buffer, cells were fixed with 0.5-1 mL of 1% formaldehyde in PBS and analyzed by flow cytometry.

[8] = biological target: T2, CD3 on purified human T cells (human, UniProt P07766 23-207); assay: flow cytometry on purified human T cells, mouse anti-FLAG mAb then PE goat anti-mouse Ig F(ab')2
T2 construct: whole, on cells; also called CD3/TCR complex
T2 sequence (P07766 23-207): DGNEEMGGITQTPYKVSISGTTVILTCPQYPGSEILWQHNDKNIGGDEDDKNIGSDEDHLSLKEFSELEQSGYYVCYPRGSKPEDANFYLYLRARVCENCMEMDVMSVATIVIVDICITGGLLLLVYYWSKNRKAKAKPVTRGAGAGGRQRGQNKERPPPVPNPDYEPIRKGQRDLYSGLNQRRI
From the text: (Jackson ImmunoResearch, West Grove, Pa.) Ten thousand events were collected and analyzed on a FACSCalibur instrument (Becton Dickinson, Mountain View, Calif.).
To verify binding of the bi-scFv to human CD3 molecules, we used purified human T cells.

B1: CR011-vcMMAE (Mab1.15.1 conjugated to monomethylauristatin E through a valine-citrulline linker) (other)
heavy: QVQLQESGPGLVKPSQTLSLTCTVSGGSISSFNYYWSWIRHHPGKGLEWIGYIYYSGSTYSNPSLKSRVTISVDTSKNQFSLTLSSVTAADTAVYYCARGYNWNYFDYWGQGTLVTVSSASTKGPSVFPLAPCSRSTSESTAALGCLVKDYFPEPVTVSWNSGALTSGVHTFPAVLQSSGLYSLSSVVTVPSSNFGTQTYTCNVDHKPSNTKVDKTVERKCCVECPPCPAPPVAGPSVFLFPPKPKDTLMISRTPEVTCVVVDVSHEDPEVQFNWYVDGVEVHNAKTKPREEQFNSTFRVVSVLTVVHQDWLNGKEYKCKVSNKGLPAPIEKTISKTKGQPREPQVYTLPPSREEMTKNQVSLTCLVKGFYPSDIAVEWESNGQPENNYKTTPPMLDSDGSFFLYSKLTVDKSRWQQGNVFSCSVMHEALHNHYTQKSLSLSPGK
VL: not shown
modifications: vcMMAE on cysteines of reduced disulfides, about 4 drugs per antibody (3.5-4.2); positions not given
IC50, clonogenic assay with 1.15.1-AE, G361 cells [1]: 1050 ng/mL and 6500 pM
IC50, clonogenic assay with 1.15.1-AE, RPMI-7951 cells [1]: 972 ng/mL and 6000 pM
IC50, clonogenic assay with 1.15.1-AE, SK-Mel 2 cells [1]: 111 ng/mL and 750 pM
IC50, clonogenic assay with 1.15.1-AE, SK-Mel 5 cells [1]: 237 ng/mL and 1600 pM
IC50, clonogenic assay with 1.15.1-AE, UACC-62 cells [1]: 697 ng/mL and 4300 pM
IC50, clonogenic assay with 1.15.1-AE, UACC-257 cells [1]: 825 ng/mL and 5500 pM
IC50, clonogenic assay with 1.15.1-AE, WM-266-4 cells [1]: 345 ng/mL and 2300 pM
IC50 of colony formation (% of control), clonogenic assay after 96 h treatment of HEK293 cells transfected with GPNMB; the same conjugate on empty-vector cells prints >1000 [2]: 0.3 µg/mL
IC50 of colony formation (% of control), clonogenic assay, SK-Mel-2 cells with GPNMB knocked down by GPNMB siRNA [3]: 1 µg/mL
IC50 of colony formation (% of control), clonogenic assay, control-siRNA-transfected SK-Mel-2 cells [3]: 0.22 µg/mL
IC50 of colony formation (% of control), clonogenic assay, mock-transfected SK-Mel-2 cells [3]: 0.33 µg/mL
CR011-AE IC50, clonogenic assay, SF-268 cells (poor expression) [4]: > 1.5 µg/mL
CR011-AE IC50, clonogenic assay, SF-539 cells [4]: 1.03 µg/mL
CR011-AE IC50, clonogenic assay, SK-MEL-2 cells [4]: 0.303 µg/mL
CR011-AE IC50, clonogenic assay, SNB-78 cells [4]: 0.449 µg/mL
CR011-AE IC50, clonogenic assay, U-118-MG cells [4]: 1.25 µg/mL
CR011-AE IC50, clonogenic assay, XF-498 cells [4]: 0.216 µg/mL
IC50, clonogenic assay with 1.15.1-AE, SR cells [5]: 296 ng/mL and 2000 pM
IC50, clonogenic assay with 1.15.1-AE, THP-1 cells [5]: 207 ng/mL and 1400 pM
IC50, clonogenic assay with 1.15.1-AE, U937 cells [5]: 340 ng/mL and 2400 pM

B2: Mab1.15.1 (CR011), fully human IgG2 (antibody)
heavy: B1 heavy
VL: not shown
killing of UACC-62 cells with saporin-conjugated secondary antibody, clonogenic, Ab 50 ng/mL [6]: > 70%

B4: Mab1.2.2 (antibody, human IgG2, V domains shown)
VH: ITLKESGPTLVKPTQTLTLTCTFSGFSLSAGGVGVGWIRQPPGKALEWLALIYWNDDKRYSPSLRSRLTITKDTSKNQVVLTITNMDPVDTATYYCAHSHYDYDWGSYFDYWGQGTLVTVSS
VL: DIVMTQTPLSLPVTPGEPASISCRSSQSLLDSDDGNTYLDWYLQKPGQSPQLLIYTLSYRASGVPDRFSGSGSGTDFTLNISRVEAEDVGVYYCMQRIEFPITFGQGTRLEIKR
notes: Human IgG2 kappa from XenoMouse XMG2; also called CR011.1.2.2
Geo Mean Ratio (relative to pK16) [7]: 1.24

B6: Mab2.10.2 (antibody, human IgG2, V domains shown)
VH: QLVESGGGVVQPGRSLRLSCAASGFAFSSYGMHWVRQAPGKGLEWVAVISYDGNNKYYADSVKGRFTISRDNSKNTLYLQMNSLRAEDTAVYYCARDLVVRGIRGYYYYFGMDVWGQGTTVTVSS
VL: not shown
notes: Human IgG2 kappa from XenoMouse XMG2; also called CR011.2.10.2
Geo Mean Ratio (relative to pK16) [7]: 2.6
killing of UACC-62 cells with saporin-conjugated secondary antibody, clonogenic, Ab 50 ng/mL [6]: > 70%

Second part, led by results:

Geo Mean Ratio (relative to pK16) [7]: 4.46
B3: Mab2.22.1 (antibody, human IgG2, V domains shown)
VH: QVQLEQSGPGLVKPSQNLSLTCTVSGGSISSGGYFWSWIRQHPGKGLEWIGYIYYSGNTYYNPSLKSRVTISVDTSKNQFSLKLSSVTAADTAVYYCARDYYYDTSGFSYRYDWYYGMDVWGQGTTVTVSS
VL: DIQLTQSPSSLSASVGDRVTITCRASQGIRNDLGWYQQKPGKAPKRLIYAASSLQNGVPSRFSGSGSGTEFTLTISSLQPEDFATYYCLQHNTYPAFGQGTKVEIKR
notes: Human IgG2 kappa from XenoMouse XMG2; also called CR011.2.22.1
killing of UACC-62 cells with saporin-conjugated secondary antibody, clonogenic, Ab 50 ng/mL [6]: > 70%

binding result [8]: no binding (tested: 5 µg/sample/100 µl)
B5: CR011 scFv (VL-L4-VH) Flag (scFv)
scFv: EIVMTQSPATLSVSPGERATLSCRASQSVDNNLVWYQQKPGQAPRLLIYGASTRATGIPARFSGSGSGTEFTLTISSLQSEDFAVYYCQQYNNWPPWTFGQGTKVEIKLSADDAKKDAAKKDDAKKDDAKKDLQVQLQESGPGLVKPSQTLSLTCTVSGGSISSFNYYWSWIRHHPGKGLEWIGYIYYSGSTYSNPSLKSRVTISVDTSKNQFSLTLSSVTAADTAVYYCARGYNWNYFDYWGQGTLVTVSSASDYKDDDDK
notes: C-terminal Flag tag is within the entry; also called CR011 single chain antibody; CR011 scFv monomer
